Molecular target: the molecule itself
Test: crystal structure

B1: LecA, galactose-binding lectin of Pseudomonas aeruginosa (natural protein)
chain: AWKGEVLANNEAGQVTSIIYNPGDVITIVAAGWASYGPTQKWGPQGDREHPDQGLICHDAFCGALVMKIGNSGTIPVNTGLFRWVAPNNVQGAITLIYNDVPGTYGNNSGSFSVNIGKDQS
In the case of B1, the “stoichiometry N” value is reported as 4.
